Consider one substance from patent US20210188994A1.

The experiment addresses His-tagged FcγRIIIa recombinant protein (UniProt P08637). The experiment in a line: SPR (BIACORE X100), His-tagged FcγRIIIa captured on anti-His CM5 chip, antibody as analyte, 1:1 Langmuir fit.
Sequence of UniProt P08637 (P08637 17-208 limits assumed): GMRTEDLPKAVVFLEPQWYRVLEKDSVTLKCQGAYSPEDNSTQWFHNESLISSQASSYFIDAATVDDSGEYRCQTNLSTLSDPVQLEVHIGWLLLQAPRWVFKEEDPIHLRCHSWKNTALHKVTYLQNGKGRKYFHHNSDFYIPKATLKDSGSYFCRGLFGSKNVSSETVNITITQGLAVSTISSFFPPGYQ

Usually Kd stands for the free concentration of one partner at which half of the binding sites on the other are occupied at equilibrium, for simple one-to-one binding. A word on the koff: it is a measure of how fast the partners let go of each other. The term kon denotes a measure of how fast the partners come together. In the case of “GAZYVA (obinutuzumab), commercial afucosylated anti-CD20 antibody”, the Kd was 0.0399 µM, the koff is 0.0069 s⁻¹ and the kon worked out at 173000 M⁻¹ s⁻¹.
